To fix the notation:
T1: human NKG2D-Fc (human, UniProt P26718 78-216, limits assumed)
T1 construct: also called natural NKG2D-Fc; not shown: Fc part
T1 sequence (looked up): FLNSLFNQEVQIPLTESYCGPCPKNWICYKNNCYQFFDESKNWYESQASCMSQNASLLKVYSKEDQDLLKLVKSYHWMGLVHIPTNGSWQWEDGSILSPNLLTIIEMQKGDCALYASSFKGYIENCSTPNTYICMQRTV

T2: His-avitag-natural NKG2D (human, biotin on the avitag sequence (BirA))
T2 construct: also called natural NKG2D ectodomain; wild type NKG2D
T2 chain: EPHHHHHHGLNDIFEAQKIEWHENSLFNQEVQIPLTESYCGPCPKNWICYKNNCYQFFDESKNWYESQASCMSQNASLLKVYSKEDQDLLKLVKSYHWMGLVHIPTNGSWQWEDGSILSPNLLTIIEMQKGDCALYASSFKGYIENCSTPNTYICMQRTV

T3: NKG2D on NKL cells (human, UniProt P26718 1-216)
T3 sequence (looked up): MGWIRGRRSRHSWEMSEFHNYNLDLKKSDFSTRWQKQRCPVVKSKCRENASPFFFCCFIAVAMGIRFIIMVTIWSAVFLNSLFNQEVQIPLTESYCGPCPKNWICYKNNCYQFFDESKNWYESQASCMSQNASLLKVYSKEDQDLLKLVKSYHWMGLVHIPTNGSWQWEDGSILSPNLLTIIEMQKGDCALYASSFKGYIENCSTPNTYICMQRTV

T4: murine NKG2D-Fc (mouse, UniProt O54709 94-232, limits assumed)
T4 construct: also called mouse NKG2D-Fc; not shown: Fc part; not described
T4 sequence (looked up): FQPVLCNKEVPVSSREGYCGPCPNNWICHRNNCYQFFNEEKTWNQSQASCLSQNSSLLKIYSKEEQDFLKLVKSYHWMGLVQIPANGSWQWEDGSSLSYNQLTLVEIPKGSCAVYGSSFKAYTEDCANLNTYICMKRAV

B1: ULBP6-α3-iFv.2 (designed binder)
chain: EPHSLCYDITVIPKFRPGPRWCAVQGQVDEKTFLHYDCGNKTVTPVSPLGKKLNVTTAWKAQNPVLREVVDILTEQLLDIQLENYTPKEPLTLQARMSCEQKAEGHSSGSWQFSIDGQTFLLFDSEKRMWTTVHPGARKMKEKWENDKDVAMSFHYISMGDCIGWLEDFLMGMDSTLEPSAGAPPMVQVTRSEASGGSGDRVTITCRASQDVSTAVAWYQQKPGKAPKLLIYSASFLYSGVPSRFSGSGSGTDFTLTISSLQPEDFATYYCQQSYTTPPTFGQGTKVEIKGGSSRSSSSGGGGSGGGGEVQLVESGGGLVQPGGSLRLSCAASGFTFTSTGISWVRQAPGKGLEWVGRIYPTNGSTNYADSVKGRFTISADTSKNTAYLQMNSLRAEDTAVYYCARTYGIYDLYVDYTEYVMDYWGQGTLVTVSSGGSSRSSSSGGGGSGGGGDIQMTQSPSSLSASGGSGQITVTCRASGFYPWNITLSWRQDGVSLSHDTQQWGDVLPDGQGTYQTWVATRISQGEEQRFTCYMEHSGQHSTHPVPSGKGSHHHHHH
notes: His-tagged, monomeric, insect cells; also called NKG2DL-α3-iFv.2 (ULBP6)
B2: ULBP1-α3-iFv.2 (designed binder)
chain: EPHCLCYDFIITPKSRPEPQWCEVQGLVDERPFLHYDCVNHKAKAFASLGKKVNVTKTWEEQTETLRDVVDFLKGQLLDIQVENLIPIEPLTLQARMSCEHEAHGHGRGSWQFLFNGQKFLLFDSNNRKWTALHPGAKKMTEKWEKNRDVTMFFQKISLGDCKMWLEEFLMYWEQMLDPTKPPMVQVTRSEASGGSGDRVTITCRASQDVSTAVAWYQQKPGKAPKLLIYSASFLYSGVPSRFSGSGSGTDFTLTISSLQPEDFATYYCQQSYTTPPTFGQGTKVEIKGGSSRSSSSGGGGSGGGGEVQLVESGGGLVQPGGSLRLSCAASGFTFTSTGISWVRQAPGKGLEWVGRIYPTNGSTNYADSVKGRFTISADTSKNTAYLQMNSLRAEDTAVYYCARTYGIYDLYVDYTEYVMDYWGQGTLVTVSSGGSSRSSSSGGGGSGGGGDIQMTQSPSSLSASGGSGQITVTCRASGFYPWNITLSWRQDGVSLSHDTQQWGDVLPDGQGTYQTWVATRISQGEEQRFTCYMEHSGQHSTHPVPSGKGSHHHHHH
notes: His-tagged, monomeric, insect cells; also called NKG2DL-α3-iFv.2 (ULBP1)
B3: ULBP4-α3-iFv.2 (designed binder)
chain: EPHSLCFNFTIKSLSRPGQPWCEAQVFLNKNLFLQYNSDNNMVKPLGLLGKKVYATSTWGELTQTLGEVGRDLRMLLCDIKPQIKTSDPSTLQVEMFCQREAERCTGASWQFATNGEKSLLFDAMNMTWTVINHEASKIKETWKKDRGLEKYFRKLSKGDCDHWLREFLGHWEAMPEPTVSPPMVQVTRSEASGGSGDRVTITCRASQDVSTAVAWYQQKPGKAPKLLIYSASFLYSGVPSRFSGSGSGTDFTLTISSLQPEDFATYYCQQSYTTPPTFGQGTKVEIKGGSSRSSSSGGGGSGGGGEVQLVESGGGLVQPGGSLRLSCAASGFTFTSTGISWVRQAPGKGLEWVGRIYPTNGSTNYADSVKGRFTISADTSKNTAYLQMNSLRAEDTAVYYCARTYGIYDLYVDYTEYVMDYWGQGTLVTVSSGGSSRSSSSGGGGSGGGGDIQMTQSPSSLSASGGSGQITVTCRASGFYPWNITLSWRQDGVSLSHDTQQWGDVLPDGQGTYQTWVATRISQGEEQRFTCYMEHSGQHSTHPVPSGKGSHHHHHH
notes: His-tagged, monomeric, insect cells; also called NKG2DL-α3-iFv.2 (ULBP4)
B4: ULBP3-α3-iFv.2 (designed binder)
chain: EPHSLWYNFTIIHLPRHGQQWCEVQSQVDQKNFLSYDCGSDKVLSMGHLEEQLYATDAWGKQLEMLREVGQRLRLELADTELEDFTPSGPLTLQVRMSCECEADGYIRGSWQFSFDGRKFLLFDSNNRKWTVVHAGARRMKEKWEKDSGLTTFFKMVSMRDCKSWLRDFLMHRKKRLEPTAPPMVQVTRSEASGGSGDRVTITCRASQDVSTAVAWYQQKPGKAPKLLIYSASFLYSGVPSRFSGSGSGTDFTLTISSLQPEDFATYYCQQSYTTPPTFGQGTKVEIKGGSSRSSSSGGGGSGGGGEVQLVESGGGLVQPGGSLRLSCAASGFTFTSTGISWVRQAPGKGLEWVGRIYPTNGSTNYADSVKGRFTISADTSKNTAYLQMNSLRAEDTAVYYCARTYGIYDLYVDYTEYVMDYWGQGTLVTVSSGGSSRSSSSGGGGSGGGGDIQMTQSPSSLSASGGSGQITVTCRASGFYPWNITLSWRQDGVSLSHDTQQWGDVLPDGQGTYQTWVATRISQGEEQRFTCYMEHSGQHSTHPVPSGKGSHHHHHH
notes: His-tagged, monomeric, insect cells; also called NKG2DL-α3-iFv.2 (ULBP3)
B5: MICwed-Fv (designed binder)
chain: EPHSLRYNLTVLSWDGSVQSGFLTEVHLDGQPFLRCDRQKCRAKPQGQWAEDVLGNKTWDRETRDLTGWGKDLRMTLAHIKDQKEGLHSLQEIRVCEIHEDNSTRSSQHFYYDGELFLSQNLETKEWTMPQSSRAQTLAMNVRNFLKEDAMETDTHYHAMHADCLQELRRYLKSGVVLRRTVPPMVQVTRSEASGGSGDRVTITCRASQDVSTAVAWYQQKPGKAPKLLIYSASFLYSGVPSRFSGSGSGTDFTLTISSLQPEDFATYYCQQSYTTPPTFGQGTKVEIKGGSSRSSSSGGGGSGGGGEVQLVESGGGLVQPGGSLRLSCAASGFTFTSTGISWVRQAPGKGLEWVGRIYPTNGSTNYADSVKGRFTISADTSKNTAYLQMNSLRAEDTAVYYCARTYGIYDLYVDYTEYVMDYWGQGTLVTVSSGGSSRSSSSGGGGSGGGGDIQMTQSPSSLSASGGSGQITVTCRASGFYPWNITLSWRQDGVSLSHDTQQWGDVLPDGQGTYQTWVATRISQGEEQRFTCYMEHSGQHSTHPVPSGKGSHHHHHH
notes: His-tagged α1-α2-α3-Fv fusion; also called MICwed-Fv run A; MICwed-Fv run B
B6: α1-α2 variant 16 (ligand)
chain: B5 chain with K125L, H161R
B7: α1-α2 variant 18 (ligand)
chain: B5 chain with S20P, G68L, K125L, H161R
B8: α1-α2 variant 17 (ligand)
chain: B5 chain with G68L, K125L, H161R
B9: wt MICA-Fv (designed binder)
chain: B5 chain with W69N, E152K, D154K
notes: His-tagged α1-α2-α3-Fv fusion, made in 293 cells; also called natural α1-α2 domain α3-Fv fusion
B10: MICv20-Fv (designed binder)
chain: B5 chain with G68A, K125L, E152Q, H158R, Q166F
notes: His-tagged α1-α2-α3-Fv fusion; also called DSM20 α1-α2-α3-Fv fusion
B11: MICv49-Fv (designed binder)
chain: B5 chain with S20T, G68Q, E152F, H158R, H161T, Q166T
notes: His-tagged α1-α2-α3-Fv fusion; also called DSM49 α1-α2-α3-Fv fusion
B12: MICv28-Fv (designed binder)
chain: B5 chain with W69N, K125L, E152K, D154K, H161R, Q166S
notes: His-tagged α1-α2-α3-Fv fusion; also called DSM28 α1-α2-α3-Fv fusion
B13: MICv27-Fv (designed binder)
chain: B5 chain with K125L, E152K, D154K, H161R, Q166S
notes: His-tagged α1-α2-α3-Fv fusion; also called DSM27 α1-α2-α3-Fv fusion
B14: MICv42-Fv (designed binder)
chain: B5 chain with K125L, H161R
notes: His-tagged α1-α2-α3-Fv fusion; also called DSM42 α1-α2-α3-Fv fusion
B15: MICv48-Fv (designed binder)
chain: B5 chain with K125L, E152A, H158I, H161R, Q166A
notes: His-tagged α1-α2-α3-Fv fusion; also called DSM48 α1-α2-α3-Fv fusion
B16: MICv25-Fv (designed binder)
chain: B5 chain with K125L, H161R, Q166S
notes: His-tagged α1-α2-α3-Fv fusion; also called DSM25 α1-α2-α3-Fv fusion

Changes are numbered by the printed parent chain.

In general, Kd refers to the equilibrium constant for the complex coming apart. Low values mean a tighter complex, high ones a looser complex. For orientation: koff means a measure of how fast the partners let go of each other. A higher koff goes with fast dissociation. The term kon denotes the second-order rate constant of association. High values mean faster complex formation, low ones slower complex formation.

One experiment concerns the target T1, human NKG2D-Fc. The experiment in a line: ELISA: protein captured on FGFR3 detected with NKG2D-Fc. (ELISA stands for enzyme-linked immunosorbent assay.)
As for B1, the binding result was “binds”.
Take B2: the binding result is “binds”.
Consider B3, for which the binding result is given as “binds”.
The same measure, in the same setting: in the case of B4 it was “binds”.

The next experiment addresses T2, His-avitag-natural NKG2D. The experiment in a line: biolayer interferometry (Octet), biotinylated natural NKG2D ectodomain on the surface, 100 nM fusion protein; run B. (In BLI a coated tip is dipped into the sample, and binding shifts an interference pattern.)
With B5, the affinity, expressed as Kd, was 15.5 nM; the dissociation rate constant (koff) came out at 0.00312 s⁻¹; the kon amounted to 201000 M⁻¹ s⁻¹.

In another experiment the target is T3, NKG2D on NKL cells. The experiment in a line: cell-based or functional assay.
With B6, the “NK cell-mediated lysis of FGFR3-expressing P815 target cells (calcein release, NKL cells)” value was ~15 fold more killing than WT at 0.78 nM.
Regarding B7, the “NK cell-mediated lysis of FGFR3-expressing P815 target cells (calcein release, NKL cells)” value was ~15 fold more killing than WT at 0.78 nM.
In the case of B8, the “NK cell-mediated lysis of FGFR3-expressing P815 target cells (calcein release, NKL cells)” value was ~15 fold more killing than WT at 0.78 nM.

Another experiment has as its target T4, murine NKG2D-Fc. The experiment in a line: competition ELISA: variant titrated against mouse NKG2D-Fc binding to plate-coated MICA (competitor), detected with anti-Fc-HRP.
Take B7: the “IC50 (read off the curve)” value was about 1 nM.
Take B8: the “IC50 (read off the curve)” value was about 1 nM.

The target of another experiment is T2, His-avitag-natural NKG2D. The experiment in a line: biolayer interferometry (Octet), biotinylated natural NKG2D ectodomain on the surface, 100 nM fusion protein.
Take B9: the Kd stood at 13.8 nM, the koff stood at 0.0018 s⁻¹ and the kon turned out to be 130000 M⁻¹ s⁻¹.
In turn, B10 displayed a Kd of 0.0851 nM, a koff of 3.05e-05 s⁻¹ and an on-rate constant (kon) of 359000 M⁻¹ s⁻¹.
Turning to B11, binding was put at a Kd of 0.746 nM, the koff is 2.76e-05 s⁻¹ and the on-rate (kon) is 37000 M⁻¹ s⁻¹.
As to B12, the Kd came to 0.33 nM, the off-rate (koff) turned out to be 7.03e-05 s⁻¹ and the kon is 246000 M⁻¹ s⁻¹.
As for B13, the Kd is 0.411 nM, the koff amounted to 8.54e-05 s⁻¹ and the kon was found to be 208000 M⁻¹ s⁻¹.
Consider B14, for which the Kd amounted to 0.109 nM, the off-rate constant (koff) amounted to 3.78e-05 s⁻¹ and the kon turned out to be 347000 M⁻¹ s⁻¹.
Turning to B15, the dissociation constant Kd turned out to be 0.244 nM, the koff came to 0.000145 s⁻¹ and the kon came to 595000 M⁻¹ s⁻¹.
As to B16, the equilibrium dissociation constant (Kd) was determined as 0.0616 nM, the off-rate constant (koff) worked out at 2.88e-05 s⁻¹ and the kon is 467000 M⁻¹ s⁻¹.
